*1 amine or outer side, *2 acyl side, *3 side chain or, on linkers, in order; H or OH if unused. Where no end group is shown, it is not given here. Side-chain parts run from the residue outwards. [ ]: non-standard residue; d: D form. The star is where a group is joined. C18 diacid = O=C(O)CCCCCCCCCCCCCCCCC(=O)*; γGlu = O=C(O)[C@H](CCC(=O)[*:2])N[*:1]; AEEA = NCCOCCOCC(=O)O; Aib = CC(C)(N)C(=O)O; Sar = CNCC(=O)O
B1: SEQ ID NO: 6 (peptide)
peptide: Y[Aib]EGTFISDLSI[Aib]K([Sar-Sar-Sar-γGlu-C18 diacid])DRIHQ[Aib]EFIEWLLAQGPSSGAPPPS-NH2
modifications: N-terminus assumed
SMILES: CC[C@H](C)[C@H](NC(=O)[C@H](CCCNC(=N)N)NC(=O)[C@H](CC(=O)O)NC(=O)[C@H](CCCCNC(=O)CN(C)C(=O)CN(C)C(=O)CN(C)C(=O)CC[C@H](NC(=O)CCCCCCCCCCCCCCCCC(=O)O)C(=O)O)NC(=O)C(C)(C)NC(=O)[C@@H](NC(=O)[C@H](CO)NC(=O)[C@H](CC(C)C)NC(=O)[C@H](CC(=O)O)NC(=O)[C@H](CO)NC(=O)[C@@H](NC(=O)[C@H](Cc1ccccc1)NC(=O)[C@@H](NC(=O)CNC(=O)[C@H](CCC(=O)O)NC(=O)C(C)(C)NC(=O)[C@@H](N)Cc1ccc(O)cc1)[C@@H](C)O)[C@@H](C)CC)[C@@H](C)CC)C(=O)N[C@@H](Cc1c[nH]cn1)C(=O)N[C@@H](CCC(N)=O)C(=O)NC(C)(C)C(=O)N[C@@H](CCC(=O)O)C(=O)N[C@@H](Cc1ccccc1)C(=O)N[C@H](C(=O)N[C@@H](CCC(=O)O)C(=O)N[C@@H](Cc1c[nH]c2ccccc12)C(=O)N[C@@H](CC(C)C)C(=O)N[C@@H](CC(C)C)C(=O)N[C@@H](C)C(=O)N[C@@H](CCC(N)=O)C(=O)NCC(=O)N1CCC[C@H]1C(=O)N[C@@H](CO)C(=O)N[C@@H](CO)C(=O)NCC(=O)N[C@@H](C)C(=O)N1CCC[C@H]1C(=O)N1CCC[C@H]1C(=O)N1CCC[C@H]1C(=O)N[C@@H](CO)C(N)=O)[C@@H](C)CC
notes: Exendin-4 derived synthetic lipidated peptide of formula I
B2: SEQ ID NO: 9 (peptide)
peptide: Y[Aib]EGTFISDLSI[Aib]K([AEEA-AEEA-γGlu-C18 diacid])DRIHQEEFIEWLLAQGPSSGAPPPS-NH2
modifications: N-terminus assumed
SMILES: CC[C@H](C)[C@H](NC(=O)[C@H](Cc1ccccc1)NC(=O)[C@H](CCC(=O)O)NC(=O)[C@H](CCC(=O)O)NC(=O)[C@H](CCC(N)=O)NC(=O)[C@H](Cc1c[nH]cn1)NC(=O)[C@@H](NC(=O)[C@H](CCCNC(=N)N)NC(=O)[C@H](CC(=O)O)NC(=O)[C@H](CCCCNC(=O)COCCOCCNC(=O)COCCOCCNC(=O)CC[C@H](NC(=O)CCCCCCCCCCCCCCCCC(=O)O)C(=O)O)NC(=O)C(C)(C)NC(=O)[C@@H](NC(=O)[C@H](CO)NC(=O)[C@H](CC(C)C)NC(=O)[C@H](CC(=O)O)NC(=O)[C@H](CO)NC(=O)[C@@H](NC(=O)[C@H](Cc1ccccc1)NC(=O)[C@@H](NC(=O)CNC(=O)[C@H](CCC(=O)O)NC(=O)C(C)(C)NC(=O)[C@@H](N)Cc1ccc(O)cc1)[C@@H](C)O)[C@@H](C)CC)[C@@H](C)CC)[C@@H](C)CC)C(=O)N[C@@H](CCC(=O)O)C(=O)N[C@@H](Cc1c[nH]c2ccccc12)C(=O)N[C@@H](CC(C)C)C(=O)N[C@@H](CC(C)C)C(=O)N[C@@H](C)C(=O)N[C@@H](CCC(N)=O)C(=O)NCC(=O)N1CCC[C@H]1C(=O)N[C@@H](CO)C(=O)N[C@@H](CO)C(=O)NCC(=O)N[C@@H](C)C(=O)N1CCC[C@H]1C(=O)N1CCC[C@H]1C(=O)N1CCC[C@H]1C(=O)N[C@@H](CO)C(N)=O
notes: as for B1

What was measured:
[1] = in vivo; cited from earlier work
human GIP receptor [2] = molecular target: T1, human GIP receptor (human, UniProt P48546 22-466); experiment: cell-based or functional assay
T1 sequence (looked up): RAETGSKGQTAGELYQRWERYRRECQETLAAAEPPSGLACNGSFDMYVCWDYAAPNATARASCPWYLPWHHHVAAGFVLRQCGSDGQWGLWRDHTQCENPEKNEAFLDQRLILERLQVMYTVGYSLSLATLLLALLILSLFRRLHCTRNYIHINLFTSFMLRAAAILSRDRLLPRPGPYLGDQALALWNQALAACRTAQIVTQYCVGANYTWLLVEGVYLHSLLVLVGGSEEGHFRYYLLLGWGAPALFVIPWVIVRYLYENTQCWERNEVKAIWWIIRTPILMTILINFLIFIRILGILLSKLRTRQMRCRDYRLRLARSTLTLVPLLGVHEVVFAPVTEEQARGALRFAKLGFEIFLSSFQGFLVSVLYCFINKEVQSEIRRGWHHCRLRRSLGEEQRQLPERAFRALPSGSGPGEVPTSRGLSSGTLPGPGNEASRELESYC

human GIP receptor [3] = molecular target: T1, human GIP receptor; experiment: cell-based or functional assay; remark: listed apart in the source
human GLP-1 receptor [4] = molecular target: T2, human GLP-1 receptor (human, UniProt P43220 24-463); experiment: cell-based or functional assay
human GLP-1 receptor [5] = molecular target: T2, human GLP-1 receptor; experiment: displacement of [125I]GLP-1 from hGLP-1R HEK-293 membranes, SPA
human GIP receptor [6] = molecular target: T1, human GIP receptor; experiment: displacement of [125I]GIP from hGIPR HEK-293 membranes, SPA

Molecule	half-life [1] [min]	hGIPR EC50, cAMP in human adipocytes (human GIP receptor [2]) [nM]	hGIPR Emax, cAMP in human adipocytes (human GIP receptor [2]) [%]	EC50 hGIPR 0% HSA, cAMP in HEK-293 cells (human GIP receptor [3]) [nM]	EC50 hGIPR 0.1% HSA, cAMP in HEK-293 cells (human GIP receptor [3]) [nM]	EC50 hGLP-1R 0% HSA, cAMP in HEK-293 cells (human GLP-1 receptor [4]) [nM]	IC50 (human GLP-1 receptor [5]) [nM]	IC50 (human GIP receptor [6]) [nM]
CC[C@H](C)[C@H](NC(=O)[C@H](CO)NC(=O)[C@H](Cc1ccc(O)cc1)NC(=O)[C@H](CC(=O)O)NC(=O)[C@H](CO)NC(=O)[C@@H](NC(=O)[C@H](Cc1ccccc1)NC(=O)[C@@H](NC(=O)CNC(=O)[C@H](CCC(=O)O)NC(=O)[C@H](C)NC(=O)[C@@H](N)Cc1ccc(O)cc1)[C@@H](C)O)[C@@H](C)CC)C(=O)N[C@@H](C)C(=O)N[C@@H](CCSC)C(=O)N[C@@H](CC(=O)O)C(=O)N[C@@H](CCCCN)C(=O)N[C@H](C(=O)N[C@@H](Cc1c[nH]cn1)C(=O)N[C@@H](CCC(N)=O)C(=O)N[C@@H](CCC(N)=O)C(=O)N[C@@H](CC(=O)O)C(=O)N[C@@H](Cc1ccccc1)C(=O)N[C@H](C(=O)N[C@@H](CC(N)=O)C(=O)N[C@@H](Cc1c[nH]c2ccccc12)C(=O)N[C@@H](CC(C)C)C(=O)N[C@@H](CC(C)C)C(=O)N[C@@H](C)C(=O)N[C@@H](CCC(N)=O)C(=O)N[C@@H](CCCCN)C(=O)NCC(=O)N[C@@H](CCCCN)C(=O)N[C@@H](CCCCN)C(=O)N[C@@H](CC(N)=O)C(=O)N[C@@H](CC(=O)O)C(=O)N[C@@H](Cc1c[nH]c2ccccc12)C(=O)N[C@@H](CCCCN)C(=O)N[C@@H](Cc1c[nH]cn1)C(=O)N[C@@H](CC(N)=O)C(=O)N[C@H](C(=O)N[C@H](C(=O)N[C@@H](CCC(N)=O)C(=O)O)[C@@H](C)O)[C@@H](C)CC)C(C)C)[C@@H](C)CC [SEQ ID NO: 1, GIP (glucose-dependent insulinotropic polypeptide)]	2	–	–	–	–	–	–	–
B1	–	0.3	112	0.00017	0.00105	> 10	173	–
B2	–	1.4	125	0.00019	0.00194	> 10	307	0.9
